Laboratory results reported in publication PMC11367644, “Structural basis for TNIP1 binding to FIP200 during mitophagy” (The Journal of Biological Chemistry, 2024).
Read-outs that look alike come from different tables or passages of the source. Blank lines part the entries; values can stand above or below the molecule they belong to. Square brackets hold non-standard residues; d marks the D form. Ends that are not written are not given here. Peptide text beside a SMILES is read from it. pS = N[C@@H](COP(=O)(O)O)C(=O)O

Columns and labels:
FIP200 claw domain (WT) = target: T1, FIP200 claw domain (WT) (Homo sapiens, UniProt Q8TDY2); assay: ITC of TNIP1/CCPG1 FIR peptides with FIP200 claw domain WT; conditions: FIP200 claw WT 0.25 mM, peptide 4 mM, 20 °C, buffer B (50 mM NaH2PO4, 150 mM NaCl, pH 7.0), single binding site model, fitted value ± SD, N.D. = no detectable binding
T1 construct: human FIP200 claw domain1490–1594 was cloned; SUMO (N, cleaved yes); made in house; host or cells: Escherichia coli Rosetta (DE3)
Experimental: (§1) DNA fragment of human FIP200 claw domain1490–1594 was cloned into a modified pET28a (Novagen) plasmid, which contained an N-terminal SUMO-tag and a ULP1 protease cleavage site. All mutants were generated using a MutanBEST Kit (TaKaRa) and confirmed by DNA sequencing. The proteins were expressed in Escherichia coli Rosetta (DE3) cells (Novagen) cultured in LB medium at 37 °C to A600 = 1.0 and then shifted to 16 °C for 24 h after induction with 0.2 mM IPTG. Bacterial pellets were resuspended in buffer A (50 mM NaH2PO4 and 1 M NaCl, pH 7.0) and lysed by sonication. The crude lysate was then centrifuged at 14,000 rpm for 30 min at 4 °C. The supernatant was applied to a Ni-NTA column (QIAGEN), followed by size-exclusion chromatography using a Superdex 200 (GE Healthcare) column. After cleavage with ULP1 protease overnight at 16 °C to remove the SUMO-tag, an additional purification step was performed with a HiTrap SP FF column. The purified protein was concentrated to ∼20 mg/ml in buffer B (50 mM NaH2PO4, 150 mM NaCl, pH 7.0) and stored at −80 °C.
(§2) ITC assays were performed on a Microcal PEAQ-ITC instrument (Malvern) at 20 °C. The concentrations of proteins were determined spectrophotometrically. […] Thermodynamic data were analyzed with a single binding site model using MicroCal PEAQ-ITC Analysis Software provided by the manufacturer (Malvern).

TNIP1_pS123 peptide = assay: ITC
[1] = target: T2, FIP200 claw domain R1573E (Homo sapiens, UniProt Q8TDY2, R1573E); assay: ITC with FIP200 claw domain mutant R1573E; conditions: 20 °C, buffer B pH 7.0, N.D. = no detectable binding
T2 construct: human FIP200 claw domain1490–1594 was cloned; SUMO (N, cleaved yes); made in house; host or cells: Escherichia coli Rosetta (DE3)
Experimental: as §1, §2

[2] = target: T3, FIP200 claw domain K1569A (Homo sapiens, UniProt Q8TDY2, K1569A); assay: ITC with FIP200 claw domain mutant K1569A; conditions: 20 °C, buffer B pH 7.0, N.D. = no detectable binding
T3 construct: human FIP200 claw domain1490–1594 was cloned; SUMO (N, cleaved yes); made in house; host or cells: Escherichia coli Rosetta (DE3)
Experimental: as §1, §2

[3] = target: T4, FIP200 claw domain F1574A (Homo sapiens, UniProt Q8TDY2, F1574A); assay: ITC with FIP200 claw domain mutant F1574A; conditions: 20 °C, buffer B pH 7.0, N.D. = no detectable binding
T4 construct: human FIP200 claw domain1490–1594 was cloned; SUMO (N, cleaved yes); made in house; host or cells: Escherichia coli Rosetta (DE3)
Experimental: as §1, §2

[4] = target: T5, FIP200 claw domain F1582A (Homo sapiens, UniProt Q8TDY2, F1582A); assay: ITC with FIP200 claw domain mutant F1582A; conditions: 20 °C, buffer B pH 7.0, N.D. = no detectable binding
T5 construct: human FIP200 claw domain1490–1594 was cloned; SUMO (N, cleaved yes); made in house; host or cells: Escherichia coli Rosetta (DE3)
Experimental: as §1, §2

[5] = target: T6, FIP200 claw domain K1568A (Homo sapiens, UniProt Q8TDY2, K1568A); assay: ITC with FIP200 claw domain mutant K1568A; assay type: binding; conditions: 20 °C, buffer B pH 7.0, fitted value ± error
T6 construct: human FIP200 claw domain1490–1594 was cloned; SUMO (N, cleaved yes); made in house; host or cells: Escherichia coli Rosetta (DE3)
Experimental: as §1, §2

[6] = target: T7, FIP200 claw domain Y1564A (Homo sapiens, UniProt Q8TDY2, Y1564A); assay: ITC with FIP200 claw domain mutant Y1564A; conditions: 20 °C, buffer B pH 7.0, N.D. = no detectable binding
T7 construct: human FIP200 claw domain1490–1594 was cloned; SUMO (N, cleaved yes); made in house; host or cells: Escherichia coli Rosetta (DE3)
Experimental: as §1, §2

[7] = tested on: FIP200 claw domain / p-CCPG1 FIR2 complex; assay: Competitive fluorescence polarization: displacement of FITC-pCCPG1 FIR2 from FIP200 claw domain; assay type: binding, human; conditions: fit of Equation 3 to competitive FP data; FIP200 claw 4 μM, 50 nM FITC-pCCPG1 FIR2, buffer B, triplicate
Description: Next, we investigated the binding of TNIP1 peptides to FIP200 in distinct states while competing with p-CCPG1 FIR2 peptide. Assuming that in solution, there is a thermodynamic equilibrium as expressed in Equation 1:(1) FIP200−TNIP1_pS123⇆w2u2FIP200⇄w1u1FIP200/p−CCPG1FIR2 where u1 and u2 represent the rates of forming the FIP200/p-CCPG1 FIR2 and FIP200-TNIP1_pS123 binding complexes, respectively, and w1 or w2 is the corresponding dissociation rate, then the probability of forming FIP200/p-CCPG1 FIR2 ( P1 ) can be expressed in the following form:(2) P1=u1w2/w1w2+u1w2+[…]
We further assumed that the binding process is diffusion-controlled, meaning that u1 and u2 are proportional to the concentrations of p-CCPG1 FIR2 and TNIP1_pS123, respectively. In addition, w1 and w2 are determined by the activation barrier in the dissociation free energy profile using the transition state theory. Consequently, the following two relations hold. […]
For competitive FP experiments, FIP200 claw domain at 4 μM and 50 nM FITC-pCCPG1 FIR2 in buffer B were mixed with increasing concentrations of unlabeled TNIP1_FIR^long or TNIP1 FIR_pS123^long peptides, respectively. The samples were measured with the CLARIOsta plate reader with FITC-fluorescence polarization filter set. […]

[8] = target: T8, human FIP200 claw domain (1490-1594) (human, UniProt Q8TDY2 1490-1594); assay: ITC
T8 chain: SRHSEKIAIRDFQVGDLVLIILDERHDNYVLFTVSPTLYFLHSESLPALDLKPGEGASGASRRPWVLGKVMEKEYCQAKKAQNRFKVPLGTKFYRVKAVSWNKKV

[9] = target: T9, FIP200 claw domain (1490-1594) (human, UniProt Q8TDY2 1490-1594); assay: ITC; peptide (4 mM) injected into FIP200 claw protein (0.25 mM); 20 °C; buffer B (50 mM NaH2PO4, 150 mM NaCl, pH 7.0); single binding site model
T9 construct: the ITC N counts peptide per claw chain; also called FIP200 claw domain WT; WT; source: E. coli Rosetta (DE3), purified (Ni-NTA, Superdex 200, HiTrap SP FF); not shown: SUMO, N-terminal, cleaved

[10] = target: T10, FIP200 claw domain (1490-1594) Q1566A (human, UniProt Q8TDY2 1490-1594, Q1566A); assay: as above; conditions: both partners purified
T10 construct: source: E. coli Rosetta (DE3), purified (Ni-NTA, Superdex 200, HiTrap SP FF); not shown: SUMO, N-terminal, cleaved

[11] = target: T11, FIP200 claw domain (1490-1594) K1568A (human, UniProt Q8TDY2 1490-1594, K1568A); assay: as above; conditions: both partners purified
T11 construct: source: E. coli Rosetta (DE3), purified (Ni-NTA, Superdex 200, HiTrap SP FF); not shown: SUMO, N-terminal, cleaved

[12] = target: T12, FIP200 claw domain (1490-1594) R1514A (human, UniProt Q8TDY2 1490-1594, R1514A); assay: as above; conditions: both partners purified
T12 construct: source: E. coli Rosetta (DE3), purified (Ni-NTA, Superdex 200, HiTrap SP FF); not shown: SUMO, N-terminal, cleaved

[13] = target: T13, FIP200 claw domain (1490-1594) D1516A (human, UniProt Q8TDY2 1490-1594, D1516A); assay: as above; conditions: both partners purified
T13 construct: source: E. coli Rosetta (DE3), purified (Ni-NTA, Superdex 200, HiTrap SP FF); not shown: SUMO, N-terminal, cleaved

[14] = target: the molecule itself; assay: crystal structure; FIP200 claw and TNIP1 FIR peptide mixed at a 1:5 molar ratio, 15 mg/ml; vapor diffusion at 16 °C or 20 °C; molecular replacement

T6 sequence (Q8TDY2 1490-1594 K1568A): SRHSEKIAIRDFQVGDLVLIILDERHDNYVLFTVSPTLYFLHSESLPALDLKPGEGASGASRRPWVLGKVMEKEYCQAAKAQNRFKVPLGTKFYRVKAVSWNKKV
T2 sequence (Q8TDY2 1490-1594 R1573E): as the sequence (Q8TDY2 1490-1594 K1568A) above, with A79K, R84E counted along it
T5 sequence (Q8TDY2 1490-1594 F1582A): as the sequence (Q8TDY2 1490-1594 K1568A) above, with A79K, F93A counted along it
T7 sequence (Q8TDY2 1490-1594 Y1564A): as the sequence (Q8TDY2 1490-1594 K1568A) above, with Y75A, A79K counted along it
T4 sequence (Q8TDY2 1490-1594 F1574A): as the sequence (Q8TDY2 1490-1594 K1568A) above, with A79K, F85A counted along it
T3 sequence (Q8TDY2 1490-1594 K1569A): as the sequence (Q8TDY2 1490-1594 K1568A) above, with A79K, K80A counted along it

Molecule: SSGTSSEFEVV [TNIP1]
KD (FIP200 claw domain (WT)): no detectable binding affinity

Molecule: SSGTSSEFEVVTPEEQ [TNIP1^long, unmodified TNIP1 FIR peptide with an elongated C terminus]
a0 (constant of Equation 3, y1 = 1/(1+a0[TNIP1])) [7]: 0.0006 µM⁻¹
KD (FIP200 claw domain (WT)): Weak binding

B1: CCPG1 FIR2 peptide (unmodified) (peptide)
peptide: TASDDSDIVTLEPPK
notes: FIR2 motif of the autophagy receptor CCPG1; source: synthetic peptide (GL Biochem, Shanghai)
Kd ([9]; both partners purified): 84.3 µM
stoichiometry N ([9]; both partners purified): 0.96

Molecule: SSGT[pS]SEFEVV [TNIP1_pS122 peptide]
Kd [8]: 260 µM
stoichiometry N [9]: 0.96

B4: human FIP200 claw domain (1490-1594) (domain or fragment, UniProt Q8TDY2 1490-1594, looked up)
chain: SRHSEKIAIRDFQVGDLVLIILDERHDNYVLFTVSPTLYFLHSESLPALDLKPGEGASGASRRPWVLGKVMEKEYCQAKKAQNRFKVPLGTKFYRVKAVSWNKKV
notes: Forms a homodimer in the crystals; source: E. coli Rosetta (DE3), purified (Ni-NTA, Superdex 200, HiTrap SP FF); not shown: SUMO, N-terminal, cleaved
binding result [14]: binds

Other lines, results leading:

ratio to parent (TNIP1_pS123 peptide): 0.79
Molecule: human FIP200 claw domain (1490-1594) (from UniProt Q8TDY2) Q1566A

KD [1]: significantly abolished
KD [2]: significantly abolished
KD [3]: significantly abolished
KD [4]: significantly abolished
KD [5]: Weak binding
KD [6]: significantly abolished
Molecule: CC(C)[C@H](NC(=O)[C@@H](NC(=O)[C@H](CCC(=O)O)NC(=O)[C@H](Cc1ccccc1)NC(=O)[C@H](CCC(=O)O)NC(=O)[C@H](COP(=O)(O)O)NC(=O)[C@H](CO)NC(=O)[C@@H](NC(=O)CNC(=O)[C@H](CO)NC(=O)[C@@H](N)CO)[C@@H](C)O)C(C)C)C(=O)O [TNIP1_pS123] (H-SSGTS[pS]EFEVV-OH)

Kd [8]: 195 µM
stoichiometry N [9]: 1.33
Molecule: SSGT[pS][pS]EFEVV [TNIP1_pS122pS123 peptide]

Kd [10]: 45 µM
stoichiometry N [10]: 0.96
Kd [11]: 133 µM
stoichiometry N [11]: 0.93
Kd ([9]; both partners purified): 45.4 µM
stoichiometry N ([9]; both partners purified): 1.03
Kd [12]: 43.8 µM
stoichiometry N [12]: 0.97
Kd [13]: 35 µM
stoichiometry N [13]: 0.98
B2: TNIP1_pS123^long peptide (peptide)
peptide: SSGTS[pS]EFEVVTPEEQ
notes: FIR motif of TNIP1 with an elongated C terminus (T129-Q133); source: synthetic peptide (GL Biochem, Shanghai)

Kd [8]: 160 µM
Kd [10]: 126 µM
stoichiometry N [10]: 1.49
stoichiometry N [9]: 1.01
Kd [12]: 178 µM
stoichiometry N [12]: 1.48
Kd [13]: 175 µM
stoichiometry N [13]: 1.18
B3: TNIP1_pS123 peptide (peptide)
peptide: SSGTS[pS]EFEVV
notes: FIR motif of TNIP1; source: synthetic peptide (GL Biochem, Shanghai)

Kd ([9]; both partners purified): 9.3 µM
stoichiometry N ([9]; both partners purified): 1.1
B5: pCCPG1 FIR2 peptide (peptide)
peptide: TASDD[pS]DIVTLEPPK
notes: as for B1
